Measured values: article PMC2965252

Biological target: SF2/ASF (ΔRS domain) (UniProt Q07955 1-196)
Test: EMSA

Chain of SF2/ASF (ΔRS domain) (Q07955 1-196, stated change not applied): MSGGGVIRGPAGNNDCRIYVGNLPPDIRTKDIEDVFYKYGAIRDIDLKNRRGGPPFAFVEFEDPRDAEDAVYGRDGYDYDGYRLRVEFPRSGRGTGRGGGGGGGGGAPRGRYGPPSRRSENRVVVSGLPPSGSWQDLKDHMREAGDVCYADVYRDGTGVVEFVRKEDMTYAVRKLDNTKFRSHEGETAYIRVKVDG

## GUGAUCAGGAUGCCCUUCUC (ssRNA) [CD200 exon 2 RNA with wild-type ESE]
  binding result: binds
